The values that follow come from paper PMC7732827, “Autoregulation of yeast ribosomal proteins discovered by efficient search for feedback regulation”.

The target in the data set is Rpl1B-HIS (Saccharomyces cerevisiae, UniProt P0CX44 1-217). The experiment in a line: EMSA; 20 mM Mg2+; 400 nM RNA, 0.1-1 ug protein in 10 ul; 50 mM Tris-HCl pH 8.5, 350 mM KCl, 20 mM MgCl2, 0.1% NP-40, 10% glycerol, 30 min at 4 C; 7.5% Tris-glycine PAGE in the cold room. Conditions: protein: recombinant; tags: C-terminal His6 (HHHHHH); label: none (SYBR Green I stain); two hairpins (HP1, HP2), predicted.
Sequence of Rpl1B-HIS (P0CX44 whole entry): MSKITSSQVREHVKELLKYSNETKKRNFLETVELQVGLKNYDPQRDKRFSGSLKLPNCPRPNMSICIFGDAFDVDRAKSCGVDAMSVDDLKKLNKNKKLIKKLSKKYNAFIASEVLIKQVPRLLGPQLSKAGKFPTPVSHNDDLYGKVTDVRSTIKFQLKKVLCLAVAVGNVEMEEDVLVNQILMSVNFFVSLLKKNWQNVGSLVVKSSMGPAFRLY

B1: RPL1B-UTR RNA, synthetic (structured_RNA)
RNA: AUAGAACUAGUCGCAAGCCUCACGGACCACCAAAUACUUUGGAAGACUAAUUACAUAUCAUAAA
Turning to B1, the binding result is on record as “binds”.
